Source: EP0571387B1

Target: c-met protooncogene product (HGF receptor) on B5/589 human mammary epithelial cells (human) (UniProt P08581)
Assay: cell-based or functional assay

UniProt P08581, sequence (P08581 25-1390): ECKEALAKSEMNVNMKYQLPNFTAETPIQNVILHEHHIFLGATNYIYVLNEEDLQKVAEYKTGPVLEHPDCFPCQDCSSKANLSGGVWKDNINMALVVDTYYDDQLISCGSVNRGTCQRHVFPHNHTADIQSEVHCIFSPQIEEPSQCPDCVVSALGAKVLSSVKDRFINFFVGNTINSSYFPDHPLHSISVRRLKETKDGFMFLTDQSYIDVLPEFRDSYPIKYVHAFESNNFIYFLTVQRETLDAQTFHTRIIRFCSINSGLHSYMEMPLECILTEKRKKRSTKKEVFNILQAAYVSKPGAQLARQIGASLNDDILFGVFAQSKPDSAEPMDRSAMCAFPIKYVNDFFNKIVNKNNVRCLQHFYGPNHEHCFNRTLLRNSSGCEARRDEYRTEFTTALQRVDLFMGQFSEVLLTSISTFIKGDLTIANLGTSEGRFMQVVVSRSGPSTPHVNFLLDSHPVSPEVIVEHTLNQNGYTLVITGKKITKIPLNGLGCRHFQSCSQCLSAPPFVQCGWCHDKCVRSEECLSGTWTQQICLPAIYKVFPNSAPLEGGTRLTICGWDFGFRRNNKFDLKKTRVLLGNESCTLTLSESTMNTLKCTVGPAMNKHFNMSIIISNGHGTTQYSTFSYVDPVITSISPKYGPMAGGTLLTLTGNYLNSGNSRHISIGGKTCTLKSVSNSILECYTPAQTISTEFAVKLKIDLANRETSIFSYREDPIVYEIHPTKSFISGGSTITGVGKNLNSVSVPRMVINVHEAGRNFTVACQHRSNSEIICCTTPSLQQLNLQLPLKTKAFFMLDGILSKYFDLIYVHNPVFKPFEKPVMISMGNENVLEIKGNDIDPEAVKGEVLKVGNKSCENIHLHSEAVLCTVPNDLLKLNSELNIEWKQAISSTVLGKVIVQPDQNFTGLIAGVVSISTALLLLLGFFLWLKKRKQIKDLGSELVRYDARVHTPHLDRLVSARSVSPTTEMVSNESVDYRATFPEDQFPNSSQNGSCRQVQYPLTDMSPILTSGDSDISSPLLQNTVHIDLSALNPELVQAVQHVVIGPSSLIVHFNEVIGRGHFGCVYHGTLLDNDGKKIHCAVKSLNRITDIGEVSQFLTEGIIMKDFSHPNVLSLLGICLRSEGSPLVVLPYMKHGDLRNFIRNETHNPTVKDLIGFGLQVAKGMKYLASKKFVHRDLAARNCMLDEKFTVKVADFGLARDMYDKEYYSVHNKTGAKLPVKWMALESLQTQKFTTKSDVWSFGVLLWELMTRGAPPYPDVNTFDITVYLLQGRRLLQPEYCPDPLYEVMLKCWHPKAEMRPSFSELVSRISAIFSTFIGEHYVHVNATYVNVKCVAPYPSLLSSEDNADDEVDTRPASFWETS

HGF/NK2 (34 kd truncated HGF variant, naturally occurring, purified from conditioned medium of SK-LMS-1 cells) (ligand)
inhibition of HGF-induced [3H]-thymidine incorporation in B5/589 cells (fold molar excess over HGF): 10 to 20
